Data: patent US10426824 (Dana-Farber, dated 2019)

Biological target: HLA-A3 (human)
Assay: competitive MHC binding assay against a reference peptide

IC50: 17 nM
B1: E255K-B255-263 mutant BCR-ABL peptide (KVYEGVWKK) (peptide)
peptide: KVYEGVWKK
notes: Synthetic 9-mer; also called E255K-B (MUT) peptide; BCR-ABL peptide harboring the E255K mutation
